Three molecules from patent publication US20220242962A1 (APTEVO RESEARCH AND DEVELOPMENT, published 2022) can be followed below.

The target in test [1] is T1, Full-length Human OX40 (human, UniProt P43489 29-277).
T1 sequence: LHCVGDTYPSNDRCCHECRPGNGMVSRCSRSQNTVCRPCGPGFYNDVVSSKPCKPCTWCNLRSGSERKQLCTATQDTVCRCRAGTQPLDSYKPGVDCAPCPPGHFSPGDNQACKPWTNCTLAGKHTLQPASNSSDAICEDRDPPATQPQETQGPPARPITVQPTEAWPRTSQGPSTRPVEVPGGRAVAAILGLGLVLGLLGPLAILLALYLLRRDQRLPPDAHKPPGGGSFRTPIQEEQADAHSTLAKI
Nature of the test: cell-based or functional assay.

The target in test [2] is T2, Full-length Human 4-1BB (human, UniProt Q07011 24-255). Put plainly: cell-based or functional assay.
The target of test [3] is T1, Full-length Human OX40. Put plainly: flow cytometry, CHO cells expressing human OX40. Background: Flow cytometry measures light scatter and fluorescence of single cells or particles in a stream.
In test [4] the target is T2, Full-length Human 4-1BB. Nature of the test: flow cytometry, Jurkat cells expressing human 4-1BB. The method, then: (§1) Serial dilutions of ADAPTIR™ constructs were incubated with cells transfected with human or cynomolgus ECD and subsequently labelled with a fluorescently-conjugated goat-α-human Fc secondary antibody. […] (See Example 16.)
In a further test the target is T3, Human OX40 ECD-AFH (human).
T3 construct: ECD'; entry includes the C-terminal tags; also called OXF003; Human OX40 ECD-avi-flag-his
T3 chain: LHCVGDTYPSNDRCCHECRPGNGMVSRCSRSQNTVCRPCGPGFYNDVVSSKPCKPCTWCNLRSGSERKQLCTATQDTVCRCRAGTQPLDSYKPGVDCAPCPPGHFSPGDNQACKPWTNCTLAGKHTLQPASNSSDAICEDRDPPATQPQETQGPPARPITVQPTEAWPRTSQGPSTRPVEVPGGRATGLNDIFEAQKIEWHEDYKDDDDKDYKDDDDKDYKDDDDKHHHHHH
Nature of the test: SPR (T200), construct captured, monomeric ECD as analyte. On the procedure:
(§2) Mouse anti-human IgG (GE, BR-1008-39) at 25 μg/ml in 10 mM sodium acetate pH 5.0 was immobilized at a density of ˜10,000 response units (RU) onto each flow cell of a CM5 research-grade sensor chip (GE) by standard amine coupling chemistry. Each binding protein at approximately 100 nM in HBS-EP+ with 0.2% BSA buffer was captured in a flow cell with the immobilized anti-human IgG at a flow rate of 10 μL/min for 20 seconds, leaving one flow cell surface unmodified as the reference. Using a single-cycle kinetics mode, five different concentrations of ECD were sequentially injected through each flow cell at 30 μL/min for 300 seconds followed by a 600 second dissociation period. Regeneration was achieved by injection of 3 M MgCl₂ at a flow rate of 30 μL/min for 30 seconds followed by HBS-EP+ with 0.2% BSA buffer stabilization for 1 min.
(§3) Sensorgrams obtained from kinetic SPR measurements were analyzed by the double subtraction method. The signal from the reference flow cell was subtracted from the analyte binding response obtained from flow cells with immobilized or captured ligands. Buffer reference responses were then averaged from multiple injections. The averaged buffer reference responses were then subtracted from analyte binding responses, and the final double-referenced data were analyzed with Biacore T200 Evaluation software (2.0, GE), globally fitting data to derive kinetic parameters. All sensorgrams were fitted using a simple one-to-one binding model.

Another test has as its target T4, Human 4-1BB ECD-AFH (human).
T4 construct: entry includes the tags; also called FOB003; HUMAN CD137 ECD-AVI-FLAG-HIS
Described as above. On the procedure: as §2, §3

For another test, the target named is T5, Full-length Cyno 4-1BB (cynomolgus monkey, UniProt Q07011 24-255 (human entry)).
T5 construct: on Jurkat or CHO cells; also called FOB006; cynomolgus 4-1BB
T5 chain: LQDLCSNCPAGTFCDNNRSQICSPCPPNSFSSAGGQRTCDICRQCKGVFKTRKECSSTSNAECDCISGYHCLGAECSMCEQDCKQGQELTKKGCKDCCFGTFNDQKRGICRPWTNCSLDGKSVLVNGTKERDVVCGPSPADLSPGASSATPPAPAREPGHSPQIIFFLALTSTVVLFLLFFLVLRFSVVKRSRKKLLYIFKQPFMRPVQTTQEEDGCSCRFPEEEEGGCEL
Put plainly: flow cytometry on Jurkat cells transfected with cynomolgus 4-1BB, goat anti-human Fc secondary antibody, MFI (Mean). On the procedure: as §1

In a further test the target is T6, Full-length Cyno OX40 (cynomolgus monkey, UniProt P43489 29-277 (human entry)).
T6 construct: on CHO-K1SV cells; also called OXF004; cynomolgus OX40
T6 chain: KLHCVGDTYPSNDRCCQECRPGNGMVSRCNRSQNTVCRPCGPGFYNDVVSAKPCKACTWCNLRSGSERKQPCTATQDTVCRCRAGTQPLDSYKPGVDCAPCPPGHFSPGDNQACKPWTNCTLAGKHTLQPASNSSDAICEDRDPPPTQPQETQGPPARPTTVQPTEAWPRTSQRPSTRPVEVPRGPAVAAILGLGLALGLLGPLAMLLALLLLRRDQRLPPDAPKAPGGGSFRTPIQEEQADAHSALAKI
Nature of the test: flow cytometry on CHOK1SV cells transfected with cynomolgus OX40, goat anti-human Fc secondary antibody, MFI (Mean). The method, then:
as §1

T4 sequence (chain, as listed by the source limits assumed): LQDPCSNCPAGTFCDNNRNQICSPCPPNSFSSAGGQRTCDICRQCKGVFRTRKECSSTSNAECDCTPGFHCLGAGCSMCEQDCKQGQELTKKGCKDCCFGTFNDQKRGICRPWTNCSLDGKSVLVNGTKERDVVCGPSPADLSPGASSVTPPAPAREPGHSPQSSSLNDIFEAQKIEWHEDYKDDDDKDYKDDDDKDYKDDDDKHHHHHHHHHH

B1: FXX01047 (bispecific antibody)
chain: EVQLVQSGAEVKKPGASVKVSCKASGYTFTSYWMNWVRQAPGQGLEWMGNIYPGSSTTNYAQKFQGRVTMTVDTSTSTVYMELSSLRSEDTAVYYCASFSDGYYAYAMDYWGQGTLVTVSSGGGGSGGGGSGGGGSGGGGSEIVMTQSPATLSLSPGERATLSCRASQDISNYLNWYQQKPGQAVRLLIYYTSRLHSGIPARFSGSGSGTDYTLTISSLQPEDFAVYFCQQGYTLPYTFGQGTKVEIKEPKSSDKTHTCPPCPAPPAAAPSVFLFPPKPKDTLMISRTPEVTCVVVDVSHEDPEVKFNWYVDGVEVHNAKTKPREEQYNSTYRVVSVLTVLHQDWLNGKEYKCAVSNKALPAPIEKTISKAKGQPREPQVYTLPPSRDELTKNQVSLTCLVKGFYPSDIAVEWESNGQPENNYKTTPPVLDSDGSFFLYSKLTVDKSRWQQGNVFSCSVMHEALHNHYTQKSLSLSPGGGGSPSSYVLTQPPSVSVAPGQTARITCGGNNIGSKSVNWFQQKPGQAPVLVVYDDSGRPSGIPERFSGSTSGNTATLTISRVEAGDEADYYCQVWDSSSDHVVFGGGTKLTVLGGGGSGGGGSGGGGSGGGGSQVQLVESGGGVVQPGRSLRLSCAASGFTLSYYGMHWVRQAPGKGLEWVAAISHDGSDKYYADSVKGRFTISRDNSKNTLYLQMNSLRAEDTAVYYCSNDQFDPWGQGTLVTVSSR
notes: ADAPTIR scFv-Fc-scFv, anti-4-1BB N-terminal, anti-OX40 C-terminal; also called FX01047
A word on the EC50: it is the concentration that produces a half-maximal response. Low readings indicate greater potency, high ones weaker potency. In general, Kd refers to the constant that tells how readily two partners part at equilibrium. A low value points to tighter binding. The koff is the first-order rate constant of dissociation. Read a high koff as fast dissociation. One may read the kon as a measure of how fast the partners come together. Read a low kon as slow association. For orientation: EC50 (read off the curve) means the concentration that produces a half-maximal response. Read a high EC50 (read off the curve) as lower potency in that assay. For B1, in the test with Full-length Human OX40 [1], the “OX40 Reporter Assay EC50” value was found to be 0.01 nM and the “OX40 Reporter Assay Max induction” value turned out to be 1.97e+06. Besides, in the test with Full-length Human 4-1BB [2], the “4-1BB Reporter Assay EC50” value came out at 0.014 nM and the “4-1BB Reporter Assay Max induction” value worked out at 6.58e+06. Further, in the test with Full-length Human OX40 [3], the concentration for a half-maximal effect (EC50) amounted to 0.35 nM and the “Max MFI” value came to 10500 MFI. In addition, in the test with Full-length Human 4-1BB [4], the concentration for a half-maximal effect (EC50) turned out to be 0.32 nM and the “Max MFI” value came out at 4940 MFI. In the test with Human OX40 ECD-AFH, this molecule registered an equilibrium dissociation constant (Kd) of 0.4 nM, a koff of 0.00016 s⁻¹ and an association rate constant (kon) of 400000 M⁻¹ s⁻¹. For the same molecule, in the test with Human 4-1BB ECD-AFH, the Kd amounted to 7 nM, the off-rate constant (koff) was 0.002 s⁻¹ and the kon stood at 280000 M⁻¹ s⁻¹. The half-maximal effective concentration (EC50 (read off the curve)) with Full-length Cyno 4-1BB was about 0.6 nM. In the test with Full-length Cyno OX40, the “EC50 (read off the curve)” value is about 2 nM.

B2: FXX01079 (bispecific antibody)
chain: SYVLTQPPSVSVAPGQTARITCGGNNIGSKSVNWFQQKPGQAPVLVVYDDSGRPSGIPERFSGSTSGNTATLTISRVEAGDEADYYCQVWDSSSDHVVFGGGTKLTVLGGGGSGGGGSGGGGSGGGGSQVQLVESGGGVVQPGRSLRLSCAASGFTLSYYGMHWVRQAPGKGLEWVAVISHDGSDKYYADSVKGRFTISRDNSKNTLYLQMNSLRAEDTAVYYCSNDQFDPWGQGTLVTVEPKSSDKTHTCPPCPAPPAAAPSVFLFPPKPKDTLMISRTPEVTCVVVDVSHEDPEVKFNWYVDGVEVHNAKTKPREEQYNSTYRVVSVLTVLHQDWLNGKEYKCAVSNKALPAPIEKTISKAKGQPREPQVYTLPPSRDELTKNQVSLTCLVKGFYPSDIAVEWESNGQPENNYKTTPPVLDSDGSFFLYSKLTVDKSRWQQGNVFSCSVMHEALHNHYTQKSLSLSPGGGGSPSEVQLVQSGAEVKKPGASVKVSCKASGYTFTSYWMNWVRQAPGQGLEWMGNIYPSGGSTNYAQKFQGRVTMTVDTSTSTVYMELSSLRSEDTAVYYCASFSDGYYAYAMDYWGQGTLVTVSSGGGGSGGGGSGGGGSGGGGSEIVMTQSPATLSLSPGERATLSCRASQSVSSYLNWYQQKPGQAPRLLIYYASRRHTGIPARFSGSGSGTDFTLTISSLQPEDFAVYYCQQGYNLPYTFGQGTKVEIKR
notes: ADAPTIR scFv-Fc-scFv, anti-OX40 N-terminal, anti-4-1BB C-terminal; also called FX01079
Take B2: in the test with Full-length Human OX40 [1], the “OX40 Reporter Assay EC50” value came out at 0.023 nM and the “OX40 Reporter Assay Max induction” value worked out at 470000. Also, in the test with Full-length Human 4-1BB [2], the “4-1BB Reporter Assay EC50” value was determined as 0.025 nM and the “4-1BB Reporter Assay Max induction” value is 6.26e+06. Also, in the test with Full-length Human OX40 [3], the EC50 turned out to be 1.4 nM and the “Max MFI” value amounted to 9820 MFI. In the test with Full-length Human 4-1BB [4], a half-maximal response (EC50) required 0.53 nM and the “Max MFI” value came out at 4120 MFI. For the same molecule, in the test with Human OX40 ECD-AFH, the Kd was 0.3 nM, the koff is 0.00012 s⁻¹ and the on-rate constant (kon) came out at 450000 M⁻¹ s⁻¹. Besides, in the test with Human 4-1BB ECD-AFH, binding was characterised by a dissociation constant (Kd) of 37 nM, the koff turned out to be 0.0038 s⁻¹ and the kon is 100000 M⁻¹ s⁻¹. For the same molecule, in the test with Full-length Cyno 4-1BB, the binding result is on record as “binds”. In addition, in the test with Full-length Cyno OX40, the 50% effective concentration (EC50 (read off the curve)) is about 2 nM.

B3: FXX01055 (bispecific antibody)
chain: SYVLTQPPSVSVAPGQTARITCGGNNIGSKSVNWFQQKPGQAPVLVVYDDSGRPSGIPERFSGSTSGNTATLTISRVEAGDEADYYCQVWDSSSDHVVFGGGTKLTVLGGGGSGGGGSGGGGSGGGGSQVQLVESGGGVVQPGRSLRLSCAASGFTLSYYGMHWVRQAPGKGLEWVAVISHDGSDKYYADSVKGRFTISRDNSKNTLYLQMNSLRAEDTAVYYCSNDQFDPWGQGTLVTVEPKSSDKTHTCPPCPAPPAAAPSVFLFPPKPKDTLMISRTPEVTCVVVDVSHEDPEVKFNWYVDGVEVHNAKTKPREEQYNSTYRVVSVLTVLHQDWLNGKEYKCAVSNKALPAPIEKTISKAKGQPREPQVYTLPPSRDELTKNQVSLTCLVKGFYPSDIAVEWESNGQPENNYKTTPPVLDSDGSFFLYSKLTVDKSRWQQGNVFSCSVMHEALHNHYTQKSLSLSPGGGGSPSEVQLVQSGAEVKKPGASVKVSCKASGYTFTSYWMNWVRQAPGQGLEWMGNIYPGSSTTNYAQKFQGRVTMTVDTSTSTVYMELSSLRSEDTAVYYCASFSDGYYAYAMDYWGQGTLVTVSSGGGGSGGGGSGGGGSGGGGSEIVMTQSPATLSLSPGERATLSCRASQDISNYLNWYQQKPGQAVRLLIYYTSRLHSGIPARFSGSGSGTDYTLTISSLQPEDFAVYFCQQGYTLPYTFGQGTKVEIKR
notes: ADAPTIR scFv-Fc-scFv, anti-OX40 N-terminal, anti-4-1BB C-terminal; also called FX01055
For B3, in the test with Full-length Human OX40 [1], the “OX40 Reporter Assay EC50” value stood at 0.013 nM and the “OX40 Reporter Assay Max induction” value came to 2.03e+06. In the test with Full-length Human 4-1BB [2], the “4-1BB Reporter Assay EC50” value was determined as 0.013 nM and the “4-1BB Reporter Assay Max induction” value came out at 6.82e+06. Besides, in the test with Full-length Human OX40 [3], the EC50 was 0.4 nM and the “Max MFI” value was determined as 10400 MFI. For the same molecule, in the test with Full-length Human 4-1BB [4], the EC50 turned out to be 0.27 nM and the “Max MFI” value came to 4750 MFI. In addition, in the test with Human OX40 ECD-AFH, the dissociation constant Kd turned out to be 0.3 nM, the off-rate (koff) is 0.00013 s⁻¹ and the kon turned out to be 440000 M⁻¹ s⁻¹. In the test with Human 4-1BB ECD-AFH, the affinity, expressed as Kd, was 21 nM; the koff came out at 0.0018 s⁻¹; the on-rate constant (kon) was determined as 84000 M⁻¹ s⁻¹. In addition, the “EC50 (read off the curve)” value in the test with Full-length Cyno 4-1BB was about 1 nM. Also, in the test with Full-length Cyno OX40, the half-maximal effective concentration (EC50 (read off the curve)) is about 2 nM.
